Measured values as given in PMC10816834, “Role of the C-Terminal β Sandwich of Thermoanaerobacter tengcongensis Thermophilic Esterase in Hydrolysis of Long-Chain Acyl Substrates” (International Journal of Molecular Sciences, 2024).
Blank lines part the entries; values can stand above or below the molecule they belong to.

What was measured:
Settings in all cases: 50 °C, 50 mM sodium phosphate pH 7.4 (also Tris-HCl pH 8.5), 5 μM enzyme, 1-20 mM substrate
[1] = system: T1, EstA3_Bb (naturally shorter B. brevis esterase); assay: p-nitrophenol release at […] nm, Lineweaver-Burk; format: biochemical, Brevibacillus brevis
T1 construct: gene EstA3.bb; full-length natural enzyme lacking the C-terminal tail, 6xHis-tag (pET28a, plasmid pFEM170), codon-optimised synthetic gene, E. coli BL21(DE3) pLysS, Ni-NTA; calculated mass 35,243

purified protein [2] = substrate: CCCC(=O)Oc1ccc([N+](=O)[O-])cc1; assay: purified protein; format: biochemical, Caldanaerobacter subterraneus
purified protein [3] = substrate: CCCCCCCC(=O)Oc1ccc([N+](=O)[O-])cc1; assay: purified protein; format: biochemical, Caldanaerobacter subterraneus

Km ([1]; table value, text b31 prints 0.53 mM): 590 µM
Molecule: CCCC(=O)Oc1ccc([N+](=O)[O-])cc1 [pNPC4, p-nitrophenyl butyrate]

Km [1]: 510 µM
Molecule: CCCCCCCC(=O)Oc1ccc([N+](=O)[O-])cc1 [pNPC8, p-nitrophenyl caprylate]

Continued, molecule first:

B1: EstA3_TtΔ (truncated T. tengcongensis esterase) (Caldanaerobacter subterraneus subsp. tengcongensis MB4) (protein)
chain: MNNPVVFLHGIFGSIFTPTPLGKIWSFGPAANIYAPFIEDLQKIGLVENKNLFVCYYEWWRKIPDAVDKLILAIEEAKAKTGSSKVDLVCHSMGGLLARSYLQSDKYQFDVDKLILLGTPNLGAANAYYGWEGGTVPPDDEDFVNMLFRGFLWIFSKIKGEKDAVTVIRKYIPSIKDLMPSKEYGSYLFMYPVRYEKILFKNIEYMKVINDFLNDLNEKADILYERVRSVYLFAGEGVYTNKFIQVEKSESEVVWPDGKPVGVIRDDKGDGTVLTKSALGINGEEIVLKSSHIGILKDSVSYLGEILG
notes: catalytic domain; 6xHis-tag (pET28a, plasmid pFEM103), E. coli BL21(DE3) pLysS, Ni-NTA; calculated mass 34,719
Km (purified protein [2]): 640 µM
Km (purified protein [3]): 560 µM

B2: EstA3_Tt (wild-type T. tengcongensis esterase EstA3, LipA3) (Caldanaerobacter subterraneus subsp. tengcongensis MB4) (protein)
chain: MNNPVVFLHGIFGSIFTPTPLGKIWSFGPAANIYAPFIEDLQKIGLVENKNLFVCYYEWWRKIPDAVDKLILAIEEAKAKTGSSKVDLVCHSMGGLLARSYLQSDKYQFDVDKLILLGTPNLGAANAYYGWEGGTVPPDDEDFVNMLFRGFLWIFSKIKGEKDAVTVIRKYIPSIKDLMPSKEYGSYLFMYPVRYEKILFKNIEYMKVINDFLNDLNEKADILYERVRSVYLFAGEGVYTNKFIQVEKSESEVVWPDGKPVGVIRDDKGDGTVLTKSALGINGEEIVLKSSHIGILKDSVSYLGEILGIREKPSISLLEKAISYLSIITDKKIVVLDRSKKIKTYDVFGKYNWHVCFEPEGVYKISIKEPGMSEFYIETNKKTVEKKFKSSRLSRGAEFTLEVDEEGNFKMRDG
notes: full length, 6xHis-tag (pET28a, plasmid pFEM45), codon-optimised synthetic gene, E. coli BL21(DE3) pLysS, Ni-NTA; calculated mass 47,078
Km (purified protein [2]): 530 µM
Km (purified protein [3]; listed as label shifted in table, assigned by text b31): 490 µM
